Assay results reported in the DeepSol protein solubility set.

test: soluble on expression in E. coli; label from the status in PepcDB or PDB records

Sequence	soluble on expression in E. coli
MEDVFKGIEKEIIKIYKIPERKGRFSNFKFKNKEINELIDALGFKLYLHQVKALKYLYNKKDVVVTTSTASGKSEIFRLAIFDNFLSNPDDRYLLIYPTRALINNQYEKFSMENELFYKITNKRVKAEILTGDVGLEKRREILKDKPNVLFTTPDMLHYQILKNHNNYLWLLKNLKLLVVDELHVYRGVFGTNMVYVFKRLLKLLKRLNNNLQILCLSATLKNPKEFVKLLFNRDFEVVD	not soluble
MEEALKENIMGALEQVVDPELGVDIVNLGLVYDVDMDEDGLTHITMTLTSMGCPLAPIIVDEVKKALADLPEVKDTEVHIVWNPPWTRDKMSRYAKIALGIQLEHHHHHH	not soluble
MEEAVSPLGLDVLEVHFARGELLVRLERKDERPITVADLEEASRHIEAALDREDPIPGSYRLLVESPGPKRPLFTRRHFERFQGLKAKVPGPEGFTGRILRVEGEEVVFQVGDEERRLRIGTFRANLAEWPEEPR	soluble
MEEDIVRLFYKGSEIILIGTSHISAESADLVRKTIQEENPDTICIEWDQKRYKKNIHPDEWDDTDIVKIIKNKQFPVFIFGVIYKLFQKKVSQDMNSLVGKEFVVAVDESKKLNIKFYLIDRDSSLTFKRAWRMLNFREKVKLPYAFGKIFEGAEETEEEVQNLLESENFEPVFEELKESYPNLWEVFVTERDDYLATKIQNTANGKTVAVLGKAHLKGVSDRLKNNQKSDLQKLEIIPPKK	not soluble
MEEDNQSPSPSESSIKTDYDAKIRVLYSTKNNKSEEESVFAHRLVLSTFSPLFQQLLQDATSSSTSTTSSTSSDDVISISLDLTAFPNALAAFKVILEALYTGDIKMKSVAANEVLAVSRHCQISSLEPKIMSAVAPLPLNLANILNCSQSVPLNSNPFLQYTSPPIQNYLSSMISLWSNPFFSALFGNTTGTPSLPFSPQSDTENSRTQSEGSSPRANSTSTPPTTDLEKIVPNDDKEGWCRNKKYIEKVDGGFMCTVCRKIYGRYNSVSYHVTIYHRNPPIKCEENGCNFSTREARYIHFHKYYRHHIPLPENIDLGSRKCPFCRHVSKSPAMLEKHIARHETDGTSGGTPGALKRAQSKKKIVPTMTTDVIDPNVSSIFAPTNPAGNIPIQCSLCPFSTHSTDLLFIHLAMQHAQELAQCSGLLADNSSETSTSSSSDGEPMITDIDLDVKPLIDQSLMLHLNTPLSN	not soluble
MEEETIKVENLDDSITIDRNPVPLAFCARPTLPAKIGMKTEDGIVDQLLDLVDPITVVNPTEIRQAPSLKSFGCDTESEFEFSGDDSDFENINDLRAGALDSDEEFDRLVKFSAKIIEKTHKSEYPDENGKKQRKPKKSQKTRNVHEYDDMPPLENLSIECKGQLLEFGFVSKVVDCQVVIISTCTEVLDFDSFLFDQKGNALGQIYDIFGQVKNPQYVIRFNSCEEASMIPIDMKVYYAPTEEQFSKTPFKGLNLAAANRDAIKSLNRRIDHQEAVAKAGETMAQVGIGSDVEFSDDEAEKEFKRTTYTQPASQMSRGFDSNRGRKRDRRGGQKVRFSAQNPPARSDNLGPIPQQPSAPPPPARPAQSTESNPYAEFGCHSGFNGRFGI	not soluble
MEELFCIGCGAQIQTEDKEKAGFTPASSIKKAEETGELYCQRCFRLRHYNEIVDVHITDDEFLKLLYEVGDSDALVVNVVDIFDFNGSIIPGLSRFVSGNDVLLVGNKKDILPKSVKDGKVTQWLTERAHEEGMRPVDVMLTSAQNHHAIKELIQRIEALRKGRDVYVVGVTNVGKSTLINAIIKEITGDKDVITTSRFPGTTLDKIEIPLDDGSYIFDTPGIIHRHQMAHYLSAKDLKYVSPKKEIKPKTYQLNAGQTLFLGGLGRFDFIDGDKQGFTAFFDNNLKLHRTKLDGADAFYDKHVGSLLMPPGPKELADFPKLVRHEFTIKDKTDVVFSGLGWIRVQGKTDQPTIVAAWAPEGVGVVVRKAIILEHHHHHH	soluble
MEENSKLGLIDVFTGDGKGKTTAAFGLAFRALGWGYRVYILQFMKTGVYGENKSAIMFDRNLKVDFVGMPYFIAWENEIPKEDLDKVKNVVICKKGHPPDDYRRAVKERFDRSLEELKSGKWDMFIYDEINVALYYYLLSMEEVMEIFKAKPDHTELVFTGRKMPKEIMERADLITEVSSPRHPYQRGILARRGVDF	not soluble
MEEPFEAYRSREVAMKLVEKIREEAKTLDGEIRIMHVCGTHEDTVTRHGIRSLLPENVKVVSGPGCPVCITPVEDIVAMQLIMRKAREEGEEIILTTFGDMYKIPTPMGSFADLKSEGFDVRIVYGIFDTYRIAKENPDKTVVHFSPGFETTTAPAAGMLNVAAQEELENFKIYSVHRLTPPAVEVLLKQGTVFQGLIAPGHVSTIIGVKGWEYLTEKYGIPQVVAGFEPNDVLMAILMLIRMYKEGEARIINEYERAVKYEGNVVAQKMIDKFFEVVDAKWRALGVFPKSGLELRKEWKDFEIRSFYKVEVPKNLPDLEKGCRCGAVLRGLALPTDCPLFGKTCTPRHPVGPCMVSYEGTCQIFYKYGVLF	soluble
MEERILDRLAALDPDLMAYIRDFAYDTVYERPGLDLKTKELLASVLLVSLGSPDELKTHLRGALRAGATEQEVREALLLCVPYLGFPRTVAAFSQLQS	soluble
MEETEFVPHKLTELRVGTLYGPQIYMTSGQGNSGFDYDMAVLFAEYLDVPLKMVPYTNLAELYDALKKNEIDIIAAGMTETPARREHFRLGPPLYRVNQVLVYREGMPAPKDISDLKGKITVIADSSFVETLTQLQKRHPTLVWDQVTDKDNEELLTMIANKEIDYTIADSSSVQINRRYLPVLRSGLVLEEKLNVVWLLPPTHSDGLMSQLLAFWHQEKLAGTLDHLNEKYFGHVKRFDYIDTRAFLRAIETVLPRYRQHFETHAGDLDWRKLAATSYQESHWNPNARSPTGVRGMMMLTQPTAKEIGITNRLDAEESIRGGAAYLRDMINRLPESIPESQRMWFALASYNIGYAHVEDARKLAESMELNPNAWQDLKKVLPLLQKRKYYQKTRYGYARGSEAVHYVDSIRRYYDTLVWVDNQSKQQNSEEVAPSDLTAEETPVPAPGTLSPDKPKLEHHHHHH	soluble
MEFAAENEGKSGGGLHSVAEGVRLSPEPGREGVRDLAGAEEFGGGEEGTGLTGIKEIGDGEEGSGQRPEEIPMDLTVVKQEIIDWPGTEGRLAGQWVEQEVEDRPEVKDENAGVLEVKQETDSSLVVKEAKVGEPEVKEEKVKEEVMDWSEVKEEKDNLEIKQEEKFVGQCIKEELMHGECVKEEKDFLKKEIVDDTKVKEEPPINHPVGCKRKLAMSRCETCGTEEAKYRCPRCMRYSCSLPCVKKHKAELTCNGVRDKTAYISIQQFTEMNLLSDYRFLEDVARTADHISRDAFLKRPISNKYMYFMKNRARRQGINLKLLPNGFTKRKENSTFFDKKKQQFCWHVKLQFPQSQAEYIEKRVPDDKTINEILKPYIDPEKSDPVIRQRLKAYIRSQTGVQILMKIEYMQQNLVRYYELDPYKSLLDNLRNKVIIEYPTLHVVLKGSNNDMKVLHQVKSESTKNVGNEN	soluble
MEFFGETWRRELAAEFEKPYFKQLMSFVADERSRHTVYPPADQVYSWTEMCDIQDVKVVILGQDPYHGPNQAHGLCFSVQKPVPPPPSLVNIYKELCTDIDGFKHPGHGDLSGWAKQGVLLLNAVLTVRAHQANSHKDRGWETFTDAVIKWLSVNREGVVFLLWGSYAHKKGATIDRKRHHVLQAVHPSPLSAHRGFLGCKHFSKANGLLKLSGTEPINWRAL	soluble
MEFMRVERVLLKDYTTLGVGGPAELWTVETREELKRATEAPYRVLGNGSNLLVLDEGVPERVIRLAGEFQTYDLKGWVGAGTLLPLLVQEAARAGLSGLEGLLGIPAQVGGAVKMNAGTRFGEMADALEAVEVFHDGAFHVYCPEELGFGYRKSHLPPGGIVTRVRLKLKERPKEEILRRMAEVDRARKGQPKRKSAGCAFKNPPGQSAGRLIDERGLKGLRVGDAMISLEHGNFIVNLGQARAKDVLELVRRVQEELPLELEWEVWP	soluble
MEFNKLQLSHCISFYISDVSEVFFESINQHPSRDFVNNILQKIKSTLSEEELEKLNTIEEVTKDEKILIMLNHVLKKIVSKTGSSSCDLFQIVKHDRFNEPVYIQSVNAFENNLINNEFAERRYDYLIEINKHSYLRKYVNAIRISFFLDLRAQILSGSFTLDVINKQLEHQNKEELFQAIYLRSLIKHFISNQLYPISLNSFIFGDKNRENKTVENDKLSVLKNNWNQIFFSKYFDFVAKNKEERVVDNNCD	not soluble
MEFRRKCSRSAMRHKSQKRRAMPNQDVEKVNEIFKFPRISEQALMDGILKISCIASFKNGNQRCFEGSIYVKELCGLRNGTKVFKFIELANIRLYSIDEEDEIPEYDWIISV	not soluble
MEFSIKQSPLSVQSVVKCIKMKQAPEILGSANGKTPSCEVNRECSVFLSKAQLSSSLQEGVMQKFNGHDALPFIPADKLKDLTSRVFNGEPGAHDAKLRFESQEMKGIGTPPNTTPIKNGSPEIKLKITKTYMNGKPLFESSICGDSAADVSQSEENGQKPENKARRNRKRSIKYDSLLEQGLVEAALVSKISSPSDKKIPAKKESCPNTGRDKDHLLKYNVGDLVWSKVSGYPWWPCMVSADPLLHSYTKLKGQKKSARQYHVQFFGDAPERAWIFEKSLVAFEGEGQFEKLCQESAKQAPTKAEKIKLLKPISGKLRAQWEMGIVQAEEAASMSVEERKAKFTFLYVGDQLHLNPQVAKEAGIAAESLGEMAESSGVSEEAAENPKSVREECIPMKRRRRAKLCSSAETLESHPDIGKSTPQKTAEADPRRGVGSPPGRKKTTVSMPRSRKGDAASQFLVFCQKHRDEVVAEHPDASGEEIEELLRSQWSLLSEKQRARYNTKFALVAPVQAEEDSGNVNGKKRNHTKRIQDPTEDAEAEDTPRKRLRTDKHSLRKRDTITDKTARTSSYKAMEAASSLKSQAATKNLSDACKPLKKRNRASTAASSALGFSKSSSPSASLTENELLWEPTPVKLDLNPAALYCT	soluble
MEGFSLNQDRGSMQDALKQYKHGLGTFEQKMPLMGRKFNEFTEQCFAGNSLTEREKQLIALGIAINAQDEYCMIYHTKGCLDQGASEENILEAVSVAAAFGGGAAFSQGVTVVQQCIEEFGNTTH	soluble
MEGTPNVPQAHRYELTLAGRPLVLETGKYAKQASGSVLVRYADTVVLATAQASETPVEADFLPLTVEFEERHYAVGKIPGSFMRREGRPGEKAILSARMTDRPIRPLFPKGFRHEVQIIVTVLSADQKNPPDILGPIAASAALMLSDIPWEGPIAAVRVGLIGGSFVLNPTLQELEESQLDLVVAGSKEAILMVEAEAGEVDEETLVQALEFAHKEMQPILELQEAMARELAKPKMAWTPPESLPEEEKEALYRLALERGLSQVLQTASKGERSRALAEFAERLIAEALPKGEDGTPDEGKKPLYESAFDEVVRRELRRLVLEEGKRADGRGPKDLRPIWIEVDVLPRAHGSAVFTRGETQVLGTVTLGTGRDEQILDDLGIDETEKFLVHYNFPPFSTGEVRRLRGVSRREVGHGNLAKRALKAVMPKEEDFPYTIRVVGDVLESNGSSSMATVCAGCLALMDAGVPIRAPVAGVAMGLVWEENRAVILTDILGLEDALGDMDFKVAGTRKGVTALQMDNKVGGLPREVLKEALLQAREARLKILDLMEAVLPAPRPELKPFAPRILSLKVPVEKIGLVIGPGGKNVRALEELGVEVDIEEDGTVRIYSSDLQAALEAKKRIEDLTREAKVGEIYEGTVTRITPFGAFISLFPGTEGLLHISQIAPGRVARVEDHLKVGDVIKVKVHRIDERGKIDLIRPELEGKIPPRRRR	soluble
